This is an account of results in paper PMC5964521 (Infection and Immunity, 2018).

The labels stand for the following.
B1: biotinylated antibody E12, recombinant human IgG1 (antibody, V domains shown)
VH: EVQLVESGGDLVQPGGSLRLSCEASGFTFSNYAMSWVRQAPGKGLEWVSGTSGSGGSTYYADSVKGRFTLSRDNSKNTLYLQMNSLRAEDTAVYYCAKDREVLRFFLLPYYFDSWGQGTLVTVSS
VL: DIVMTQSPGSLSLSPGERATLSCRASQSVSSDYVAWYQQKPGQAPRLLIFDASTRATGIPDRFSGSGSGTDFTLTIGRLEPEDFAVYYCQQYGNSPLTFGGGAKVEIK
B2: biotinylated antibody H5, recombinant human IgG1 (antibody, V domains shown)
VH: QVQLVESGPGLVKPSETLSLTCTVSGASVSSGTYYWSWIRQPPGKGLEWIGYSYYTGSSDSNASLKSRVTLSIDTSRNLLSLKLTSVTAADTAVYYCARDRRKVRGVWAGYSGMDVWGPGTTVTVSS
VL: EIVMTQSPSSLSASVGDRVTITCQASQEITNYLNWYQQKPGKAPKLLIYDASHLETGVPSRFSGSGSGTDFSFTISSLQPEDIATYYCQQYDDFPWGGVTFGGGTKVEIK
B3: biotinylated antibody A12, recombinant human IgG1 (antibody, V domains shown)
VH: QVTLKESGGGLVKPGGSLRLSCAASGFTFTDYYMTWIRQAPGKGLEWVSCVGSSGTYTNYAQNVQGRFTISRDNAKNSLYLQMNSLRTEDTAVYYCARVTGSGNFYGSYHYYYMDVWGKGTMVTVSS
VL: EVVLTQSPATLSLSPGKKATLSCRASQSVSNYLAWYQQKPGQSPRLLIFDASKRAAGIPARFSGSGSGTDFTLTISSLEPEDFAVYYCQQRTNWLTFGGGTKVEIK
B4: biotinylated antibody A8, recombinant human IgG1 (antibody, V domains shown)
VH: QVQLVESGAEVKKPGASVKVSCKTSGYTFSSYGITWVRQAPGQGLEWMGWISAYNGDTNYADSVKGRVTMTTDTSTSTAYMELRSLRFDDTAVYYCARDTSFAPSGYGFDISGQGTTVTVSS
VL: DIQLTQSPSSLSASVGDRVTITCRASQGIRHELAWYQQKPGKAPQRLIYAASSLQSGVPSRFSGSGSGTDFTLTINSLQPEDSATYYCLQVNSYPRTFGQGTRVDIK
B5: biotinylated antibody D8, recombinant human IgG1 (antibody, V domains shown)
VH: QITLRESGAEVTKPGSSVKVSCKASGGTFGSYGIRWVRQAPGQGLEWMGGIIPMFGTANYAQRFQGRVTITADKSTSTAYMELSSLKSEDTAVYYCARENSIVGANWFDPWGQGTLVTVSS
VL: EIVMTQSPSSLSASVGDRVTFTCRASQSISTYLNWYQQKPGKAPTLLIYAASTLRSGVPSRFSGSGSGTDFTLTISSLQPVDFATYFCQQSYSSPYTFGQGTTLEIK
B6: antibody E12 (antibody, V domains shown)
VH: B1 VH
VL: B1 VL
B7: antibody A12 (antibody, V domains shown)
VH: B3 VH
VL: B3 VL
B8: antibody A8 (antibody, V domains shown)
VH: B4 VH
VL: B4 VL
B9: antibody H5 (antibody, V domains shown)
VH: B2 VH
VL: B2 VL
B10: antibody D8 (antibody, V domains shown)
VH: B5 VH
VL: B5 VL

A word on the EC50: it is the concentration giving half of the maximal effect.

In the first test the target is pertussis toxin (PTx) holotoxin, native (Bordetella pertussis, strain  …, UniProt P04977;P04978;P04979;P0A3R5;P04981). The test can be described thus: ELISA. As to conditions: both partners purified. On the technique in general: ELISA stands for enzyme-linked immunosorbent assay.
With B1, the response was half-maximal at 0.56 nM (EC50). As to B2, the concentration giving a half-maximal response (EC50) was found to be 0.06 nM. On the same count and under the same terms, under B3 stands 0.24 nM; under B4, 0.65 nM; under B5, 0.76 nM.

A further test addresses T1, PTx B oligomer (Bordetella pertussis, strain  …, UniProt P04978;P04979;P0A3R5;P04981). As to the kind of experiment: ELISA. As to conditions: both partners purified.
In the case of B6, the binding result was “no binding”. With B7, the binding result was “no binding”. Turning to B8, the binding result is given as “no binding”.

Another test deals with T1, PTx B oligomer. The test can be described thus: ELISA. Conditions: both partners purified. This is another data set of the same source.
In turn, B9 yielded an EC50 of 0.11 nM.

Take B10: a half-maximal effect (EC50) was put at 0.78 nM.

The target in another test is PTx S1-220 (soluble, truncated recombinant S1 subunit) (Bordetella pertussis, strain  …, UniProt P04977). As to the kind of experiment: ELISA. As to conditions: both partners purified.
In the case of B6, the EC50 turned out to be 0.05 nM. On the same count and under the same terms, under B8 stands 0.02 nM.

The next test has as its target pertussis toxin (native PTx holotoxin) (Bordetella pertussis, strain  …, UniProt P04977;P04978;P04979;P0A3R5;P04981). The test can be described thus: ELISA. Conditions: both partners purified.
Turning to B6, the half-maximal effective concentration (EC50) stood at 0.13 nM. Still for that read-out and setting: under B9 stands 0.02 nM; under B7, 0.1 nM; under B8, 0.15 nM.

Take B10: a half-maximal effect (EC50) was put at 0.14 nM.
